Test results reported in paper PMC8083607 (National Science Review, 2021).
Numbering of substitutions follows the chain as printed.

B1: FC124 (antibody, V domains shown)
VH: EVQLLESGGGVVQPGRSLRLSCAASGFTFSSYAMHWVRQAPGKGLEWVALISYDGINKYYADSVNGRFTISRDNSKYTLYLQMNSLRAEDTAVYYCARAHRGSYYYGMDVWGQGTMVTVSS
VL: DIELTQSPGTLSLSPGERATLYCRASQSVSSSYLAWYQQKPGQAPRLLIYGAFGRAAGIPDRFRGSGSGTQFTLTISRLEPEDSAVYFCQQYGQSPLYSFGQGTKLEIK
B2: FC118 (antibody, V domains shown)
VH: B1 VH with L50V, I56S, N65K, Y77N, H100R, R101G, Y105L, T115A
VL: DIELTQSPSSLAASVGDTVTITCRASQTIGKYLTWYQKKPGRAPDLLIYAASRLQSGVPSRFSGRASGTEFTLTISSLQPEDFATYFCQHTYRTLSFGPGTKVDLK
B3: FC120 (antibody, V domains shown)
VH: EVQLLESGAEVKKPGASVKVSCKASGYTFTSYYMHWVRQAPGQGLEWMGIINPSGGSTSYAQKFQGRVTMTRDTSTSTVYMELSSLRSEDTAVYYCARGGGHALDIWGQGTMVTVSS
VL: QSVLTQPPSVSGAPGQKVTISCSGSSSNIGNNYVSWYQQLPGTAPKLLIYDNNKRPSGIPDRFSGSKSGTSATLGITGLQTGDEADYYCGTWDSSLSAWVFGGGTKLTVL
B4: FC11 (antibody, V domains shown)
VH: EVQLLESGGGVVQPGRSLRLSCAASGFTFSYYGMHWVRQAPGTGLEWVAVISYDGSNEYYADSVKGRFTISRDNSKNTLYLQMNSLRAEDTAVYYCAKAMFLGDSSGLTGLDMDVWGQGTTVTVSS
VL: DIELTQSPGTLSLSPGERATLSCRASQSVSSYLAWYQQKPGQAPRLLIYDASNRATGIPARFSGSGSGTDFTLTISSLEPEDFALYYCQQRGNWPPTFGGGTKLEIK
B5: FC07 (antibody, V domains shown)
VH: EVQLLESGGGLVQPGGSLRLSCAASGFTFGSYAMSWVRQAPGKGLEWVSSISGSGGSTYYADSAKGRFTISRDNSKNTLYLQMNSLRAEDTAVYYCAKSPNYDILTGYYNWAGYYFDYWGQGTLVTVSS
VL: DIELTQSPGTLSLSPGDRATLSCRASRGVSSNSLAWYRQRPGESPRLVISGASTRATGIPERFSGSGSGTDFSLSISRLQPEDFAVYYCQQYGSFPFTFGPGTTVDV
B6: FC05 (antibody, V domains shown)
VH: VQLLEQSGAEVKKPGASVRVSCKVSGYTLPEVAMHWVRQAPGKGLEWMGGFDPEDGETMYAQKFQGRVTMTEDTSTDTAYMELSSLRSEDTAVYYCATTTPFSSSYWFDPWGQGTLVTVSS
VL: B3 VL with P7A, W99V
notes: also called FC05 mAb
B7: FC06 (antibody, V domains shown)
VH: EVQLLESGGGVVQPGRSLRLSCAASGFTFSSYAMHWVRQAPGEGLEWVAVISYDGSNKYYADSVKGRFTISRDNSKNTLYLQMNSLRAGDTAVYYCARLNYYGSGFYYRLGDDYWGQGTLVTVSS
VL: DIELTQSPSSLSASEGDRVTITCRASQGIRNDLGWYQQKPGKAPKRLIYGAPSLQSGVPSRFSGSGSGTEFTLTISTLQPEDSATYYCLQHNKYPWTFGQGTKVEIK
B8: FC122 (antibody, V domains shown)
VH: B1 VH
VL: DIELTQSPSSLSASVGDSVTITCRGSQIISRYLNWYQQKPGKAPKLLIYAASTLQSGVPSRFSGSGSGTEFTLSISSLEPEDFATYYCQQSYAIPYTFGQGTRLEI

Assays:
Test in all cases: ELISA
Settings in all cases: both partners purified
MERS-CoV S2 = MERS-CoV S2 (MERS-CoV, strain not named (entry: …, UniProt K9N5Q8))
Sequence of MERS-CoV S2 (MERS-CoV, strain not named (K9N5Q8 whole entry, looked up): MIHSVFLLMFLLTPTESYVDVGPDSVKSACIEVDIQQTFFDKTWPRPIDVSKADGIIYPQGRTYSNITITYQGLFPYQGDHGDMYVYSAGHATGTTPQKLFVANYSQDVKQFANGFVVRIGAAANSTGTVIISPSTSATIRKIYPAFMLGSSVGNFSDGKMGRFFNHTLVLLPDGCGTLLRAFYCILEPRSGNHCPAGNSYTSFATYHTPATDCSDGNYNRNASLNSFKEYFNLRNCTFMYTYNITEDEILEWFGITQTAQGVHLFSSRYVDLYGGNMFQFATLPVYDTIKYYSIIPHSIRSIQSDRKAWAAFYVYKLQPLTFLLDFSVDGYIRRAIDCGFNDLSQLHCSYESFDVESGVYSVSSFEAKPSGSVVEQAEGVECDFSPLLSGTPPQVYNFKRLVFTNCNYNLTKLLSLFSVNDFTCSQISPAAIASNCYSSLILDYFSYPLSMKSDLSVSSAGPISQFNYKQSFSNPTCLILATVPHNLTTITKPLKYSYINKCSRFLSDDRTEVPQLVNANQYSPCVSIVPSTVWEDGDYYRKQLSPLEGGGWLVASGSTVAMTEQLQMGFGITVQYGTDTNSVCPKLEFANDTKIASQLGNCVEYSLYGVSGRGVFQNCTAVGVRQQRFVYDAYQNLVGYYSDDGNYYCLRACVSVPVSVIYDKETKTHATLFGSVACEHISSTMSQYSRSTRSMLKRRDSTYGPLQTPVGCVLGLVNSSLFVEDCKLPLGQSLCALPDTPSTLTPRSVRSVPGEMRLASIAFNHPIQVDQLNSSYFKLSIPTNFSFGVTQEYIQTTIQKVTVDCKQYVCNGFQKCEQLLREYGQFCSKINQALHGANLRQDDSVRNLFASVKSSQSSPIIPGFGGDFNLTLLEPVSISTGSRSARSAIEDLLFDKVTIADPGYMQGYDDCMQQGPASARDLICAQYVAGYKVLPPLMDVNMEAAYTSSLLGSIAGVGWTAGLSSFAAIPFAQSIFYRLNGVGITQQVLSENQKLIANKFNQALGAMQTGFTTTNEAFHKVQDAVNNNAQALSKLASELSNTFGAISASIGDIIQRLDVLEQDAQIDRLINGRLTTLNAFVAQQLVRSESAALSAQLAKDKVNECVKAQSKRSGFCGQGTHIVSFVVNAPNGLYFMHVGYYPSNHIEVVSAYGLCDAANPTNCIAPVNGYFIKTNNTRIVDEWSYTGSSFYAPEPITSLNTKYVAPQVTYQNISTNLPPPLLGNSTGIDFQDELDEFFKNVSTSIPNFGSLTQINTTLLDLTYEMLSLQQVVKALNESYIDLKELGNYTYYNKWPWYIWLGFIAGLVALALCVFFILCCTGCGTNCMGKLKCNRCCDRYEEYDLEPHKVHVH

[1] = target: SARS-CoV-2 S2 (recombinant) (SARS-CoV-2 Wuhan-Hu-1 (MN908947.3 used …, UniProt P0DTC2))
SARS-CoV S2 = SARS-CoV S2 (SARS-CoV, strain not named (reference …, UniProt P59594))
SARS-CoV RBD = SARS-CoV RBD (Severe acute respiratory syndrome …, UniProt P59594)
[2] = target: T1, SARS-CoV-2 NTD (recombinant, limits not stated) (SARS-CoV-2 Wuhan-Hu-1 (MN908947.3), UniProt P0DTC2)
T1 construct: also called N-terminal domain

SARS-CoV NTD = SARS-CoV NTD (SARS-CoV, strain not named (reference …, UniProt P59594))

Binder	binding result (MERS-CoV S2)	binding result [1]	binding result (SARS-CoV S2)	binding result [2]	also measured
B1	binds	binds	binds	–	–
B2	binds	binds	binds	–	–
B3	binds	binds	binds	–	–
B4	–	–	–	–	binding result (SARS-CoV RBD): binds
B5	–	–	–	binds	binding result (SARS-CoV NTD): binds
B6	–	–	–	binds	–
B7	–	–	–	binds	–
B8	–	binds	–	–	–
